Test results as given in patent publication US8802681B2, “Pharmaceutical compositions with attenuated release of phenolic opioids” (Signature Therapeutics, Inc., priority 2008, dated 2014).

Tests used:
[1] = Oral administration of Compound 4 and Compound 101 to rats, hydromorphone in plasma; assay type: in vivo, rat; conditions: Compound 4 20 mg/kg, Compound 101 10 mg/kg
Experimental: Saline solutions of Compound 4 (which can be prepared as described in Example 13) and Compound 101 (prepared as described in Example 14) were dosed as indicated in Table 9.

[2] = Oral administration of Compound 3 and Compound 101 to rats, hydromorphone in plasma; assay type: in vivo, rat; conditions: Compound 3 20 mg/kg, Compound 101 10 mg/kg
Experimental: Saline solutions of Compound 3 (which can be prepared as described in Example 12) and Compound 101 (prepared as described in Example 14) were dosed as indicated in Table 8.

[3] = Oral administration of Compound 1 and SBTI in the presence of ovalbumin to rats, hydromorphone in plasma; assay type: in vivo, rat; conditions: Compound 1 20 mg/kg
Experimental: In an effort to understand the role of SBTI, ovalbumin was used as a non-trypsin inhibitor protein control. Albumin from chicken egg white (ovalbumin) (Catalog No. A7641, Grade VII, lyophilized powder, Sigma-Aldrich) was dissolved in saline.
At specified time points, blood samples were drawn, harvested for plasma via centrifugation at 5,400 rpm at 4° C. for 5 min, and 100 microliters (μl) plasma transferred from each sample into a fresh tube containing 1 μl of formic acid. The tubes were vortexed for 5-10 seconds, immediately placed in dry ice and then stored until analysis by HPLC/MS.

[4] = Oral administration of Compound 2 and SBTI to rats, hydromorphone in plasma; assay type: in vivo, rat; conditions: Compound 2 20 mg/kg, SBTI 500 mg/kg
Experimental: When SBTI was dosed, it was administered 5 min prior to Compound 4. At specified time points, blood samples were drawn, processed and analyzed as described in Example 2.

[5] = Oral administration of Compound 4 and SBTI to rats, hydromorphone in plasma; assay type: in vivo, rat; conditions: Compound 4 20 mg/kg, SBTI 500 mg/kg
Experimental: Dosing, sampling and analysis procedures were as described in Example 4, except that Compound 4 without inhibitor was administered to 7 rats.

[6] = Oral administration of Compound 1 and SBTI to rats, hydromorphone in blood; assay type: in vivo, rat
Experimental: At specified time points, blood samples were drawn, quenched into methanol, centrifuged at 14,000 rpm @ 4° C., and stored at −80° C. until analysis by high performance liquid chromatography/mass spectrometry (HPLC/MS).

[7] = Oral administration of Compound 3 and SBTI to rats, hydromorphone in plasma; assay type: in vivo, rat; conditions: Compound 3 20 mg/kg, SBTI 500 mg/kg
From the text: Dosing, sampling and analysis procedures were as described in Example 4.

[8] = biological target: T1, trypsin (Bos taurus, UniProt P00760); assay: Modified trypsin assay (in vitro IC50); assay type: biochemical; conditions: trypsin inhibition
T1 sequence (P00760 24-246): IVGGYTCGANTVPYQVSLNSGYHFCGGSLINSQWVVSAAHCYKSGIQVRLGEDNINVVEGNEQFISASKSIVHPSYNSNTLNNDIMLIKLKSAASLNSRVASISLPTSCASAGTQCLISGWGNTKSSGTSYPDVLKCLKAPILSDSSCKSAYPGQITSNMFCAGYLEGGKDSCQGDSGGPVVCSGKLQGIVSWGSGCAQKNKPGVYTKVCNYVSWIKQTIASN

Molecule: CCOC(=O)N1CCN(C(=O)[C@H](CCCNC(=N)N)NS(=O)(=O)c2ccc3ccccc3c2)CC1 [Compound 101, (S)-ethyl 4-(5-guanidino-2-(naphthalene-2-sulfonamido)pentanoyl)piperazine-1-carboxylate]
- Effect of Compound 101 on Compound 4's release of hydromorphone [1]: attenuates Compound 4's ability to release hydromorphone, both with respect to suppressing Cmax and delaying Tmax
- Effect of Compound 101 on Compound 3's release of hydromorphone [2]: attenuates Compound 3's ability to release hydromorphone, both with respect to suppressing Cmax and delaying Tmax

B1: ovalbumin: Albumin from chicken egg white, Catalog No. A7641, Grade VII, Sigma-Aldrich; non-trypsin inhibitor protein control (protein, UniProt P01012 2-386, looked up)
Ovalbumin: GSIGAASMEFCFDVFKELKVHHANENIFYCPIAIMSALAMVYLGAKDSTRTQINKVVRFDKLPGFGDSIEAQCGTSVNVHSSLRDILNQITKPNDVYSFSLASRLYAEERYPILPEYLQCVKELYRGGLEPINFQTAADQARELINSWVESQTNGIIRNVLQPSSVDSQTAMVLVNAIVFKGLWEKAFKDEDTQAMPFRVTEQESKPVQMMYQIGLFRVASMASEKMKILELPFASGTMSMLVLLPDEVSGLEQLESIINFEKLTEWTSSNVMEERKIKVYLPRMKMEEKYNLTSVLMAMGITDVFSSSANLSGISSAESLKISQAVHAAHAEINEAGREVVGSAEAGVDAASVSEEFRADHPFLFCIKHIATNAVLFFGRCVSP
- Effect of ovalbumin on Compound 1's release of hydromorphone ([3]; OVA 20-1000 mg/kg): does not significantly affect Compound 1's ability to release hydromorphone

B2: SBTI: trypsin inhibitor from Glycine max (soybean), Catalog No. 93620, ~10,000 units per mg, Sigma-Aldrich (protein, UniProt P01070 25-205, looked up)
Trypsin inhibitor A: DFVLDNEGNPLENGGTYYILSDITAFGGIRAAPTGNERCPLTVVQSRNELDKGIGTIISSPYRIRFIAEGHPLSLKFDSFAVIMLCVGIPTEWSVVEDLPEGPAVKIGENKDAMDGWFRLERVSDDEFNNYKLVFCPQQAEDDKCGDIGISIDHDDGTRRLVVSKNKPLVVQFQKLDKESL
- Effect of SBTI on Compound 2's release of hydromorphone [4]: attenuates Compound 2's ability to release hydromorphone, both with respect to suppressing Cmax and delaying Tmax
- Effect of SBTI on Compound 4's release of hydromorphone [5]: attenuates Compound 4's ability to release hydromorphone, at least with respect to delaying Tmax
- Effect of SBTI on Compound 1's release of hydromorphone ([6]; Compound 1 20 mg/kg, SBTI 10-1000 mg/kg): attenuates Compound 1's ability to release hydromorphone in a dose-dependent manner
- Attenuation of hydromorphone release from Compound 1 ([6]; at higher SBTI concentrations): approximately 100%
- Effect of SBTI on Compound 3's release of hydromorphone [7]: attenuates Compound 3's ability to release hydromorphone, both with respect to suppressing Cmax and delaying Tmax
- IC50 [8]: 270 nM
- Effect of SBTI on Compound 1's release of hydromorphone ([3]; SBTI 500 mg/kg in the presence of 500 mg/kg ovalbumin): suppresses Cmax and delays Tmax
